This is an account of results in PMC10323135.

This test addresses Norovirus-like particle displaying C-terminal SpyTag (norovirus VP1 capsid protein fused with a C-terminal SpyTag) (norovirus strain Hu/GII.4/Sydney/NSW0514/2012/AU). Briefly: SDS-PAGE mobility shift of the covalent SpyTag/SpyCatcher conjugate.

Take “SpyCatcher-M2e (SpyCatcher fused with the ectodomain of influenza matrix-2 protein) (designed binder)”: the conjugation efficiency came to 24%.
